Assay results from patent publication US11149086B2, “KV1.3 binding immunoglobulins” (Ablynx N.V., priority 2014, dated 2021).
Like-named read-outs stand apart in the source and are kept apart here.

Experiments:
[1] = tested on: CCR7−CD45RA− T cells; type: cell-based, human; conditions: for IC50: monovalent Nanobodies
From the text: The purified anti-Kv1.3 Nanobodies were characterized in a T Cell-activation assay. Human T Cells were first collected from Buffy Coat blood (from healthy volunteers, Bloodbank Gent) using RosetteSep (StemCell Technologies, #15061) followed by an enrichment on Ficoll-Paque™ PLUS (GE Healthcare #17-1440-03). CCR7−CD45RA− T cells were isolated through negative selection using biotinylated antibodies against CD45RA (BD Bioscience #624008) and CCR7 (BD Bioscence #624009) in addition to the Dynabeads Biotin Binder (Invitrogen #110.47). The purity of the population was afterwards checked with anti-CD3 (eBioscience #12-0037-73); anti-CD8 (BD Bioscience #345775); anti-CD4 (BD Bioscience #345771); anti-CD45RO (BD Bioscience #555493); anti-CD45RA (BD Bioscience #550855); anti-rat IgG (Jackson ImmunoResearch Laboratories #112-116-143); anti-CD19 (BD Bioscience #555413) and anti-Human CCR7 (R&D Systems #MAB197) labeled antibodies in flow cytometric assay.
Isolated CCR7^−CD45RA^− T Cells were then stimulated on anti-CD3 (eBioscience 16-0037-85; 540 ng/ml) coated 96-well plates at a concentration of 200 000 cells/well in absence or presence of dilution series of anti-Kv1.3 antibodies and ShK positive control (Smartox, #08SHK001). After 72 h, IFN-gamma production was measured with anti-human IFNγ antibody capture in ELISA (BD Bioscence #551221) combined with biotinylated anti-human IFNγ (BD Bioscience, #554550) and streptavidin-HRP (Dakocytomation #P0397) as detection (FIG. 11A-11B).
In addition, also CD25 expression was measured in flow cytometry, using an anti-CD25 antibody (BD Pharmingen, cat 557138) (FIG. 11C-11D). […]

[2] = molecular target: T1, human Kv1.3 (Homo sapiens, UniProt P22001); assay: IonFlux automated patch clamp, Kv1.3-expressing HEK293H cells; type: cell-based; conditions: monovalent Nanobodies, concentration at which Kv1.3 current is 50%
T1 construct: cell lines stably expressing the full length human Kv1.3 channel
From the text: Periplasmic extracts were electrophysiologically screened for inhibitory effects on the voltage-gated potassium channel Kv1.3 on the IonFlux™ automated Patch Clamp using Kv1.3-expressing HEK293H cells. The complete procedure for evaluating the modulatory effect of periplasmic extracts on human Kv1.3 via electrophysiological recordings is given below.
The IonFlux™ (Molecular Devices) is an automated patch clamp system with integrated Well Plate Microfluidic™ Technology, temperature control and continuous perfusion and voltage clamp. The IonFlux™ 16 has sixteen parallel amplifiers and uses 96-well IonFlux plates conform to the Society for Biomolecular Sciences. This system allows both population and single cell patch clamp.
Extracellular solution contained (in mM): 132 NaCl, 5.4 KCl, 1.8 CaCl2, 0.8 MgCl2, 10 HEPES, 5 glucose (pH 7.2 with NaOH, and 285-290 mOsmolar). Intracellular solution contained (in mM): 40 KF, 100 KCl, 2 MgCl2, 10 HEPES, 5 EGTA (pH 7.45 with CsOH, and 300-315 mOsmolar). These solutions were freshly made, stocked for no longer than a month at 4° C. and filtered prior to use. […]
HEK293H cells stably expressing the human Kv1.3 channel were generated in house. […] Cells were counted (Casy T T, Roche), suspended at 1 million cells/ml, transferred to a new 50 ml conical CELLSTAR® tube and gently shaken at RT for approximately 20 min. […]

[3] = molecular target: T1, human Kv1.3; assay: IonWorks Quattro automated perforated patch clamp, Kv1.3-expressing CHL cells; type: cell-based; conditions: monovalent Nanobodies, sustained current P1
From the text: Selected Nanobodies were electrophysiologically characterized on human Kv1.3 on the IonWorks automated perforated-Patch Clamp using Kv1.3-expressing Chinese Hamster Lung (CHL) cells. The procedure for evaluating the modulatory effect of the purified Nanobodies on human Kv1.3 via electrophysiological recordings is given below.
IonWorks Quattro (Molecular Devices) is a second-generation screening instrument that provides membrane voltage control and provides a direct electrophysiological assay for screening and characterization of compounds. It is an automated, high-throughput planar perforated patch clamp that uses a 384-well PatchPlate™ substrate.
Extracellular solution contained (in mM): 138 NaCl, 2.7 KCl, 0.9 CaCl2, 0.5 MgCl2, 8 Na2HPO4, and 1.5 KH2PO4 (pH 7.3 with NaOH, and 285-290 mOsmolar). The intracellular solution contained (in mM): 100 K-gluconate, 40 KCl, 3.2 EGTA, 5 HEPES and 3.2 MgCl2 (pH 7.3 with KOH, and 300-315 mOsmolar). These solutions were freshly made, stocked for no longer than a month at 4° C. and filtered prior to use. The selected Nanobodies were directly diluted in extracellular solution to obtain a 3 μM sample solution. […]
The basic principles of IonWorks automated patch clamp electrophysiology are described by Schroeder et al. (J Biomol Screen 8(1):50-64, 2003). […] In PPC mode, an ensemble average of the current from up to 64 cells per well was recorded. […]

T1 sequence (P22001 whole entry): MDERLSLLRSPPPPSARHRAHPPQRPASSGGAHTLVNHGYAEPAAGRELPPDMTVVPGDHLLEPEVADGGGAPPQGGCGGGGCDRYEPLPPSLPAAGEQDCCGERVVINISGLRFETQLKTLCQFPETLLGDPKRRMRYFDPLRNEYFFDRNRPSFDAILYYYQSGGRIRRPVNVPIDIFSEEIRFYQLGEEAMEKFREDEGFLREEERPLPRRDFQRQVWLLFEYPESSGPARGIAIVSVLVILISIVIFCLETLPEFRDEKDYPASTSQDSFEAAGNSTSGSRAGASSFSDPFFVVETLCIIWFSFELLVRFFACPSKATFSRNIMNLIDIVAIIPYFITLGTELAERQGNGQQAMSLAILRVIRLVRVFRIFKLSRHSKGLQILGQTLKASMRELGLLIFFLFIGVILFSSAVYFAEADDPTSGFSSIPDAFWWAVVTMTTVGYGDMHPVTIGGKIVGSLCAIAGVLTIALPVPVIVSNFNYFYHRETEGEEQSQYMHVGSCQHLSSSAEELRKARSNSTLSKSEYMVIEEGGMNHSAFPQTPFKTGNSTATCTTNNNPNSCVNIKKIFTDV

Molecule	inhibition of T-cell stimulation (IFNγ, CD25), in words ([1]; anti-CD3 stimulation)	IC50 ([1]; plate bound anti-CD3, 72 h, read-out: IC50 (in M) IFNγ read out)	IC50 ([1]; plate bound anti-CD3, read-out: IC50 (in M) CD25 read out)	IC50 [2]	IC50 [3]
A0194020A06: monovalent anti-Kv1.3 Nanobody, family 12 (protein, Nanobody sequence) VHH: EVQLVESGGGLVQAGGSLGLSCSASGLLFSRNSAGWYRQAPGKRREFVARIRMGGSINYADSVKGRFTVSRDNAKNMMYLQMNDLKPEDTAVYFCSGWREGFYEYWGQGTLVTVSS	clearly inhibited	30 nM	36 nM	13.4 nM	–
A0194016B04: monovalent anti-Kv1.3 Nanobody, family 12 (protein, Nanobody sequence) VHH: EVQLVESGGGLVQAGGSLRLSCSASGLLFSVNSAGWYRQAPGKQRDFVARIRSGGSTNYADSVKGRFTISRDKATNTLYLQMNNLKPEDTAVYYCSSWRTEAYEYWGRGTLVTVSS	–	–	–	84 nM	34 nM
